Experimental data: the Human Domainome abundance scans (Beltran et al. 2025)
± gives the uncertainty stated by the source.

B1: Homeobox protein cut-like 2, residues 895 to 963; numbered along this chain, O14529 (parent)
chain: EVDTLELTRQVKEKLAKNGICQRIFGEKVLGLSQGSVSDMLSRPKPWSKLTQKGREPFIRMQLWLSDQL

Variants of: B1
Test: abundance fitness (aPCA) (normalised: wild type 0, dead -1); higher = more abundant; growth selection in yeast, the domain comes from the species named
Settings: Homo sapiens

Row | Variant | abundance fitness
1 | EVDTLELTRQVKEKLAKNGICQRIFGEKVLGNSQGSVSDMLSRPKPWSKLTQKGREPFIRMQLWLSDQL [L32N] | -0.305 ± 0.042
2 | EVDTLELTRQVKEKLAKNGICQRIFGEKVLGVSQGSVSDMLSRPKPWSKLTQKGREPFIRMQLWLSDQL [L32V] | 0.132 ± 0.05
3 | EVDTLELTRQVKEKLAKNGICQRINGEKVLGLSQGSVSDMLSRPKPWSKLTQKGREPFIRMQLWLSDQL [F25N] | -0.803 ± 0.17
4 | EVDTLELTRQVKEKLAKNGICQRIFGEKVLGLSQGSVSDMLSRPKPWSKLTQKGREPAIRMQLWLSDQL [F58A] | -0.917 ± 0.06
5 | EVDTLELTRQVKEKLAKNGICQRIFGEKWLGLSQGSVSDMLSRPKPWSKLTQKGREPFIRMQLWLSDQL [V29W] | -0.113 ± 0.044
6 | EVDTLELTRQVKEKLAKNGICQRIFGEKNLGLSQGSVSDMLSRPKPWSKLTQKGREPFIRMQLWLSDQL [V29N] | -0.551 ± 0.055
7 | EVDTLELTRQVKEKLAKNGICQRIFGEKVLGLSQGSVSDMLSRPKPWSKLTQKGREPFIRMQLWESDQL [L65E] | -1.28 ± 0.24
8 | EVDTLELTRQVKEKLAKNGICQRIFGEKVLGLSQGSVSDMLSRPKPWSKLTQKGREPFIRMQLWASDQL [L65A] | -0.694 ± 0.093
9 | EVDTLELTRQVKEKLAKNGICQRIFGEKVLGLSQGSVSDMLSRPKPWSKLTQKGREMFIRMQLWLSDQL [P57M] | 0.073 ± 0.043
10 | EVDTLELTRQVKEKLAKNGICQRIFGEKVLGLSQGSVSDMLSRPKPASKLTQKGREPFIRMQLWLSDQL [W47A] | -0.81 ± 0.06
11 | EVDTLNLTRQVKEKLAKNGICQRIFGEKVLGLSQGSVSDMLSRPKPWSKLTQKGREPFIRMQLWLSDQL [E6N] | -0.055 ± 0.1
12 | EVDTLDLTRQVKEKLAKNGICQRIFGEKVLGLSQGSVSDMLSRPKPWSKLTQKGREPFIRMQLWLSDQL [E6D] | 0.096 ± 0.055
13 | EVDTLRLTRQVKEKLAKNGICQRIFGEKVLGLSQGSVSDMLSRPKPWSKLTQKGREPFIRMQLWLSDQL [E6R] | -0.162 ± 0.034
14 | EVDTLALTRQVKEKLAKNGICQRIFGEKVLGLSQGSVSDMLSRPKPWSKLTQKGREPFIRMQLWLSDQL [E6A] | -0.123 ± 0.052
15 | EVDTLELTRQVKEKLAKNGICQRIFGEKVLGLSQGSVSDMLSRPKPWSKLTQKGREPFIRMRLWLSDQL [Q62R] | 0.015 ± 0.029
16 | EVDTLELTRQVKEKLAKNGICQRIFGEKVLGLSQGSWSDMLSRPKPWSKLTQKGREPFIRMQLWLSDQL [V37W] | -0.061 ± 0.038
17 | EVDTLELTRQVKELLAKNGICQRIFGEKVLGLSQGSVSDMLSRPKPWSKLTQKGREPFIRMQLWLSDQL [K14L] | 0.009 ± 0.027
18 | EVDTLELTRQVKEKLAKNGICQRIFGEKVLGLGQGSVSDMLSRPKPWSKLTQKGREPFIRMQLWLSDQL [S33G] | -0.03 ± 0.033
19 | EVDTLELTRQVKEKLAKNGICQRIFGEKVLGLSQGSVSDMLSRPKPWSKLTQKGREPFFRMQLWLSDQL [I59F] | -0.212 ± 0.072
20 | EVDTLELTRQVKEKLAKNGICQRIFGEKVLGLSQGSVSDMLSRPKPWSKLTQKGREPFWRMQLWLSDQL [I59W] | -0.299 ± 0.072

Row | Variant | abundance fitness
21 | EVDTLELTRQVKEKLAKNGICQRIFGEKVLGLSQGSVSDMLSMPKPWSKLTQKGREPFIRMQLWLSDQL [R43M] | -0.224 ± 0.047
22 | EVDTLELTRQVKEKLSKNGICQRIFGEKVLGLSQGSVSDMLSRPKPWSKLTQKGREPFIRMQLWLSDQL [A16S] | 0.008 ± 0.038
23 | EVDTLELTRQVKEKLAKNGICQRIFGEKVLGLSQGSVSDMLSRPKPWSKRTQKGREPFIRMQLWLSDQL [L50R] | -1.11 ± 0.094
24 | EVDTLELTRQVKEKLAKNGICQRIFGEKVLGLSQGSVSDSLSRPKPWSKLTQKGREPFIRMQLWLSDQL [M40S] | -0.201 ± 0.038
25 | EVDTLELTRQVKEKLAKNGICQRIFGEKVLGLSQGSVSDMLSRPKPWSKLTQKFREPFIRMQLWLSDQL [G54F] | -0.048 ± 0.045
26 | EVDTLELTRQVKEKLAKNGICQRIFGEKVLGLSQGSVSDMLSRPKPWSKLTQKGREPFIRMQLWLSFQL [D67F] | -0.64 ± 0.045
27 | EVDTLELTRQVKEKLAKNGICQRIFGEKVLGLSQGSVSDMLSRPKPWSKLTQKGREPFIRMQLWLSNQL [D67N] | -0.07 ± 0.13
28 | EVDTLELTRQVKEKLAKNGICQRIFGEKVLGLSQGSVSDMLSRPKPWSKLTQKGREPFIRMQLWLSHQL [D67H] | -0.296 ± 0.13
29 | EVDTLELTRQVKEKLAKNGICWRIFGEKVLGLSQGSVSDMLSRPKPWSKLTQKGREPFIRMQLWLSDQL [Q22W] | -0.021 ± 0.042
30 | EVDTLELTRQVKEKLAKNGICDRIFGEKVLGLSQGSVSDMLSRPKPWSKLTQKGREPFIRMQLWLSDQL [Q22D] | -0.457 ± 0.21
31 | EVDTLELTRQVKEKLAKNGICQRIFLEKVLGLSQGSVSDMLSRPKPWSKLTQKGREPFIRMQLWLSDQL [G26L] | -0.162 ± 0.028
32 | EVDTLELTRQVKEKLAKNGICQRIFGIKVLGLSQGSVSDMLSRPKPWSKLTQKGREPFIRMQLWLSDQL [E27I] | -0.128 ± 0.036
33 | NVDTLELTRQVKEKLAKNGICQRIFGEKVLGLSQGSVSDMLSRPKPWSKLTQKGREPFIRMQLWLSDQL [E1N] | -0.067 ± 0.13
34 | EVDTLELTRQVKEKLAKNGICQRGFGEKVLGLSQGSVSDMLSRPKPWSKLTQKGREPFIRMQLWLSDQL [I24G] | -0.347 ± 0.042
35 | EVDTLELTPQVKEKLAKNGICQRIFGEKVLGLSQGSVSDMLSRPKPWSKLTQKGREPFIRMQLWLSDQL [R9P] | -0.137 ± 0.047
36 | EVDTLELTRQVKYKLAKNGICQRIFGEKVLGLSQGSVSDMLSRPKPWSKLTQKGREPFIRMQLWLSDQL [E13Y] | -0.08 ± 0.062
37 | EVDTLELTRQVKLKLAKNGICQRIFGEKVLGLSQGSVSDMLSRPKPWSKLTQKGREPFIRMQLWLSDQL [E13L] | -0.138 ± 0.024
38 | EVDTLELTRQVKEKLAKNGICQRIFGEKVLGLSQGSVSDMLSRPKPWSKLTQKGRFPFIRMQLWLSDQL [E56F] | -0.362 ± 0.066
39 | EVDTLELTRQVKEKLAKNGICQRIFGEKVLGLSQGSVSDMLSRPKPWSKLFQKGREPFIRMQLWLSDQL [T51F] | -0.005 ± 0.059
